Test results taken from PMC5291256 (Nucleic Acids Research, 2016).

Biological target: T1, SFR1^dN202 mutant protein (mouse, UniProt Q8BP27 203-319)
T1 sequence (looked up): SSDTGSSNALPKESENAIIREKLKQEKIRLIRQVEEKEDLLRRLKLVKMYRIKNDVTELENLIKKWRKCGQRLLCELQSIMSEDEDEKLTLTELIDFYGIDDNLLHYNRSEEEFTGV
Assay: AUC

B1: mouse SWI5 (natural protein, UniProt Q8K3D3 1-89, looked up)
chain: MIDENNDVSEEALSSDIKKLKEKHDMLDKEISQLIAEGYRVIELEKHISLLHEYNDIKDVSQMLLGKLAVTRGVTTKELYPDFDLNLND
- stoichiometry N: 1
